Measured values as given in the supplement of paper PMC9170038.

Tested on: MS2 coat protein
Test: apparent KD of MS2 coat protein; designed switch direction (-1 OFF switch, 1 ON switch): -1; higher = weaker reporter binding
Method in brief: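 For each design, the apparent KD is the median over clusters of curves fitted to normalised cluster fluorescence. Clusters held RNA switches with common flanks, transcribed on Illumina chips by stalled E. coli RNA polymerase. These were titrated with SNAP-549-labelled MS2 coat protein, doubling from 0.7 or 1.5 nM to 3 µM, without input, with 200 uM small-molecule ligand, or with an oligonucleotide input.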

[1] = input ligand: microRNA oligo, concentration not stated

Sequence | apparent KD of MS2 coat protein (input ligand: FMN 200 uM) [µM] | apparent KD of MS2 coat protein (input ligand: none) [µM] | apparent KD of MS2 coat protein (Eterna round: R95, input ligand: microRNA oligo, concentration not stated) [µM] | apparent KD of MS2 coat protein [1] [µM]
AGCUAGAUAGGAUAUGCCCGGGAUAACAUGAGGAUCACCCAUGUGACCGAAUCAUGUCCAGCAGAAGGGUUUGGGA [Mod of ViennaUCT 9 - Jieux - Exclusion 5] (Eterna round: R97, puzzle: Exclusion 5) | 0.0347 | 0.0233 |  | 
AGCUAGAUAGGAUAUGCCCGGGAUAACAUGAGGAUCACCCAUGUGACCGAUUCAUGUCCAGCAGAAGGGUUUGGGA [Mod of ViennaUCT 8 - Jieux - Exclusion 5] (Eterna round: R97, puzzle: Exclusion 5) | 0.0171 | 0.0167 |  | 
AGCUAGUCAGGAUAUUCUAAAAAUUACAUGAGGAUCACCCAUGUGAAUGGACAAGGGUGUGAAGAAGGGACUAGCG [Omei Ex5 A11] (Eterna round: R97, puzzle: Exclusion 5) | 0.214 | 0.54 |  | 
AGCUAGUCAGGAUAUUCUAAUAAUUACAUGAGGAUCACCCAUGUGAAGAGACAAGGGUGUGAAGAAGGGACUAGCG [Omei Ex5 A1] (Eterna round: R97, puzzle: Exclusion 5) | 0.188 | 0.6 |  | 
AGCUAGUCAGGAUAUUCUAAUAAUUACAUGAGGAUCACCCAUGUGAAUAGACAAGGGUGUGAAGAAGGGACUAGCG [Omei Ex5 A5] (Eterna round: R97, puzzle: Exclusion 5) | 0.0583 | 0.366 |  | 
AGCUAGUCAGGAUAUUCUAUUAAUUACAUGAGGAUCACCCAUGUGAAUGGACAAGGGUGUGAAGAAGGGACUAGCG [Omei Ex5 A13] (Eterna round: R97, puzzle: Exclusion 5) | 0.394 | 2.08 |  | 
AGCUCAAAAGUGAGGAUAUCUAGGGUCAAAUGACCGGAGAAGGCACAUGAGGAUCACCCAUGUAACGCCAUGGA [Ceinveusar] (puzzle: Brourd's mod of Exclusion 4) |  |  | 0.0125 | 
AGCUCUGCAGGAUAUGCCCGGGAUAACAUGAGGAUCACCCAUGUGACUGAUUGUUAUUCUGCAGAAGGGCAUGGGA [JL-EX5-4.15 ViennaUCT mod] (Eterna round: R97, puzzle: Exclusion 5) | 0.409 | 0.637 |  | 
AGCUGUGAGUGAGGAUAUCUGCUGUUGUCAGUCGGAGAAGGCGCGGACAGAACAUGAGGAUCACCCAUGUGUAUGGGCGGCCUC [Usatia] (Eterna round: R96, puzzle: Exclusion NG 1) | 0.217 | 0.0855 |  | 0.0436
AGCUGUGGCCGAGGAUAUACACAUGAGGAUCACCCAUGUAGGCGCGGAUACGCGCUAAAAUAAUUGUAGAAGGCGGUCUCAGCA [Eli eng2 - 054] (Eterna round: R96, puzzle: Exclusion NG 2) | 0.00388 | 0.0106 |  | 0.00592
AGCUGUGGCCGAGGAUAUACACAUGAGGAUCACCCAUGUAGGUGCGGAUACUCGCACCAAUAAGUGUAGAAGGCGGUCUCAGCA [Eli eng2 - 057] (Eterna round: R96, puzzle: Exclusion NG 2) | 0.0146 | 0.0192 |  | 0.0132
AGCUGUGGCCGAGGAUAUCACAUGAGGAUCACCCAUGUACAUGAUUAAGCCUGGUAACAGGCUCAUGAGAAGGCGGUCUCAGCA [Eli eng2 - 014] (Eterna round: R96, puzzle: Exclusion NG 2) | 0.012 | 0.0206 |  | 0.0131
AGCUGUGGCCGAGGAUAUCCACAUGAGGAUCACCCAUGUGAAUAGGGAAUUAACCCAUAACCGUGGGAGAAGGCGGUCUCAGCA [Eli eng2 - 049] (Eterna round: R96, puzzle: Exclusion NG 2) | 0.0551 | 0.0821 |  | 0.0486
AGCUGUGGCCGAGGAUAUCCAGCCUUAAAUACCGACGUAUAGUCGGACAUGAGGAUCACCCAUGUGGAGAAGGUGGUCUCAGCA [Eli eng2 - 041] (Eterna round: R96, puzzle: Exclusion NG 2) | 0.0931 | 0.0427 |  | 0.0418
AGCUGUGGCCGAGGAUAUCUAAAACUCAAAACCGAAAUAUAAUCGGACAUGAGGAUCACCCAUGUAGAGAAGGCGGUCUCAGCA [Eli eng2 - 078] (Eterna round: R96, puzzle: Exclusion NG 2) |  |  |  | 0.0594
AGCUGUGGCCGAGGAUAUCUAACAAUCCUAACCGAAAUAUAAUCGGACAUGAGGAUCACCCAUGUAGAGAAGGCGGUCUCAGCA [Eli eng2 - 074] (Eterna round: R96, puzzle: Exclusion NG 2) |  |  |  | 0.0681
AGCUGUGGCCGAGGAUAUCUAAUAAUCUCAACCGAAAUAUAAUCGGACAUGAGGAUCACCCAUGUAGAGAAGGCGGUCUCAGCA [Eli eng2 - 067] (Eterna round: R96, puzzle: Exclusion NG 2) |  |  |  | 0.0272
